This is an account of results in patent publication US20010049357A1, “Use of Hsp27 as an anti-inflammatory agent” (priority 1999, published 2001).

Series [1] in a line: Adverse effect of Hsp 25 in normal rats. The series is classed as in vivo. Particulars: 10 μg in normal rats (~250 gm body weight). As for the experimental part:
Studies were performed to analyze the adverse effect of Hsp 25 (a murine analogue of Hsp27 ) in rats. […] To examine the effects in an animal model, the cecal ligation and puncture model (CLP) in rats can be used. (Chaudry, et al, 1993, In: Schlag, G. and Redl, H. (Eds), Pathophysiology of shock, Sepsis, and Organ Failure. Springer-Verlag, pp. 1048-1059.) CLP induces sepsis in rats. Hsp25 is administered to the CLP animals and the anti-inflammatory effect of Hsp25 in CLP rats is evaluated. The effectiveness of Hsp25 in simultaneously inducing IL-10 and IL-12 in human monocytes in the rat model, is reasonably predictive of the efficacy of Hsp27 as an anti-inflammatory agent in humans.

In series [2] the test system is Mono Mac 6, a human monocyte cell line. The settings on record: reference 7; cited from earlier work.

B1: Hsp25: a murine analogue of Hsp27 (protein, UniProt P14602 1-209, looked up)
Heat shock protein beta-1: MTERRVPFSLLRSPSWEPFRDWYPAHSRLFDQAFGVPRLPDEWSQWFSAAGWPGYVRPLPAATAEGPAAVTLAAPAFSRALNRQLSSGVSEIRQTADRWRVSLDVNHFAPEELTVKTKEGVVEITGKHEERQDEHGYISRCFTRKYTLPPGVDPTLVSSSLSPEGTLTVEAPLPKAVTQSAEITIPVTFEARAQIGGPEAGKSEQSGAK
As to B1, the adverse effects result in series [1] is “did not induce any adverse effects”.

B2: Hsp 60: Human 60-kDa heat-shock protein, member of the large Hsp family (protein, UniProt P10809 27-573, looked up)
60 kDa heat shock protein, …: AKDVKFGADARALMLQGVDLLADAVAVTMGPKGRTVIIEQSWGSPKVTKDGVTVAKSIDLKDKYKNIGAKLVQDVANNTNEEAGDGTTTATVLARSIAKEGFEKISKGANPVEIRRGVMLAVDAVIAELKKQSKPVTTPEEIAQVATISANGDKEIGNIISDAMKKVGRKGVITVKDGKTLNDELEIIEGMKFDRGYISPYFINTSKGQKCEFQDAYVLLSEKKISSIQSIVPALEIANAHRKPLVIIAEDVDGEALSTLVLNRLKVGLQVVAVKAPGFGDNRKNQLKDMAIATGGAVFGEEGLTLNLEDVQPHDLGKVGEVIVTKDDAMLLKGKGDKAQIEKRIQEIIEQLDVTTSEYEKEKLNERLAKLSDGVAVLKVGGTSDVEVNEKKDRVTDALNATRAAVEEGIVLGGGCALLRCIPALDSLTPANEDQKIGIEIIKRTLKIPAMTIAKNAGVEGSLIVEKIMQSSSEVGYDAMAGDFVNMVEKGIIDPTKVVRTALLDAAGVASLLTTAEVVVTEIPKEEKDPGMGAMGGMGGGMGGGMF
As for B2, the TNFα induced result in series [2] is reported as “approximately 750 pg/ml”.
